Measured values: US7276370 (DONALD DANFORTH PLANT SCIENCE CENTER, dated 2007)

Target: the molecule itself
Assay: EMSA, E. coli protein extract with 32P-labeled BoxIIml DNA probe; homodimer inferred from the shifted band
Experimental: FIG. 5: Electrophoretic mobility shift assay (EMSA) of Rf2a and the 3Δ mutant of Rf2a. Oligonucleotides containing the BoxIIml sequences (Yin et al., 1997a) were used as ^32P-labeled probe or an unlabeled competitor in an EMSA with 500 ng of *E. coli* protein containing 3Δ protein or Rf2a. Unbound probe is located near the bottom of the gel. The band with the greatest mobility in lanes 1, 2, 4, and 5 indicated by x is presumed to result from binding with an uncharacterized protein that co-purifies with the target protein. Lane 1, protein prepared from *E. coli* without induction. Lane 2, reaction with extracts of *E. coli* that produce Rf2a. Lane 3, reaction with equimolar amounts of Rf2a and 3Δ plus 80× fold molar excess of unlabeled competitor probe relative to the labeled probe. Lane 4, reaction with equimolar amounts of Rf2a and 3Δ. Lane 5, reaction with 3Δ.
Electrophoretic mobility shift assays (EMSAs). EMSAs were carried out essentially as described by Yin and Beachy (7). 500 ng of *E. coli* protein extracts were incubated with 32_P labeled DNA probes comprising Box IIml that was constructed using annealed oligonucleotides (10). For competition EMSA, unlabeled oligonucleotides were added to the binding reactions at 80 fold molar excess relative to the labeled probe (see FIG. 5).

B1: Rf2a transcription factor (other)
chain: MNREKSPIPGDGGDGLPPQATRRAGPPAAAAAAEYDISRMPDFPTRNPGHRRAHSEILSLPEDLDLCAAGGGDGPSLSDENDEELFSMFLDVEKLNSTCGASSEAEAESSSAAAHGARPKHQHSLSMDESMSIKAEELVGASPGTEGMSSAEAKKAVSAVKLAELALVDPKRAKRIWANRQSAARSKERKMRYIAELERKVQTLQTEATTLSAQLALLQRDTSGLTTENSELKLRLQTMEQQVHLQDALNDTLKSEVQRLKVATGQMANGGGMMMNFGGMPHQFGGNQQMFQNNQAMQSMLAAHQLQQLQLHPQAQQQQVLHPQHQQQQPLHPLQAQQLQQAARDLKMKSPMGGQSQWGDGKSGSSGN
notes: The 5' primer encodes an extra Met-Glu-Lys before MNREKS; Crude E. coli protein extract was used in the EMSA; also called rice transcription factor Rf2a
  binding result: binds
